Reference: paper PMC9889962

Experiments:
Test in all cases: SPR
[1] = target: SARS-CoV-2 Omicron BQ.1.1 spike protein trimer (SARS-CoV-2) (UniProt P0DTC2)
[2] = target: SARS-CoV-2 Omicron XBB.1 spike protein trimer (SARS-CoV-2) (UniProt P0DTC2)
[3] = target: SARS-CoV-2 Omicron BA.2 spike protein trimer (SARS-CoV-2) (UniProt P0DTC2)
[4] = target: SARS-CoV-2 Omicron BA2.75 spike protein trimer (SARS-CoV-2) (UniProt P0DTC2)
[5] = target: SARS-CoV-2 Omicron BA.5 spike protein trimer (SARS-CoV-2) (UniProt P0DTC2)
[6] = target: SARS-CoV-2 Omicron BA4.6 spike protein trimer (SARS-CoV-2) (UniProt P0DTC2)

LiVE-Longer YTE chimera (ACE-2 LVE/STR-YTE fusion protein) (from UniProt Q9BYF1 18-740) (Fc fusion)
Kd [1]: 1.81 pM | Kd [2]: 215 pM | Kd [3]: 0.078 pM | Kd [4]: 0.133 pM | Kd [5]: 5.43 pM | Kd [6]: 845 pM
